From patent publication US20220047716A1, “COMBINATION THERAPIES WITH ANTI-FOLATE RECEPTOR ANTIBODY CONJUGATES” (SUTRO BIOPHARMA, INC., priority 2018, published 2022) come the findings set out here.

The test has as its target human folate receptor alpha (hFolRα) on cells (human) (UniProt P15328). Kind of test: cell-based or functional assay.

Sequence of human folate receptor alpha (hFolRα) on cells (human) (P15328 25-234 limits assumed): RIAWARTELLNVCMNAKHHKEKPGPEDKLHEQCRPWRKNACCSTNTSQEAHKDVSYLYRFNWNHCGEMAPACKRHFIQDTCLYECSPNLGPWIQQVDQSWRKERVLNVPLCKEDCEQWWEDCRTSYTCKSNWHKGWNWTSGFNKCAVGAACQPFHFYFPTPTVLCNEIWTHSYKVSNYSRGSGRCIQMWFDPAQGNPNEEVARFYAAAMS

For “ADC Molecule 21 (IMGN853 surrogate, Mov19-sulfo-SPDB-DM4) (antibody)”, the fold shift of cell killing EC50 on Igrov1 cells on addition of naked antibody worked out at 3 fold.
